Measurements published in patent publication US20230192903A1 (published 2023).

B1: bispecific antibody CS8 (bispecific antibody, human IgG1, kappa)
light: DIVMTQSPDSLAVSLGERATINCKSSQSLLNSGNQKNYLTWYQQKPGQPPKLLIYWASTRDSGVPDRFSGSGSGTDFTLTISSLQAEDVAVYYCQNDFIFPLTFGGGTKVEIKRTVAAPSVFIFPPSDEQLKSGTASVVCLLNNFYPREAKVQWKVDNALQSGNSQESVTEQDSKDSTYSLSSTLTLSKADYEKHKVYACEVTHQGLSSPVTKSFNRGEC
heavy 1: QVQLQESGPGLVKPSETLSLTCTVSGFSLTRYGVSWIRQPPGKGLEWIGVIWGEGNTNYNPSLKSRVTISKDSSKSQVSLKLSSVTAADTAVYYCARVNFGNALDYWGQGTLVTVSSASTKGPSVFPLAPSSKSTSGGTAALGCLVKDYFPEPVTVSWNSGALTSGVHTFPAVLQSSGLYSLSSVVTVPSSSLGTQTYICNVNHKPSNTKVDKKVEPKSCDKTHTCPPCPAPPVAGPSVFLFPPKPKDTLMISRTPEVTCVVVDVSHEAPEVQFNWYVDGVEVHNAKTKPREEQFNSTFRVVSVLTVVHQDWLNGKEYKCKVSNKGLPAPIEKTISKTKGQPREPQVYTLPPCRDELTKNQVSLWCLVKGFYPSDIAVEWESNGQPENNYKTTPPVLDSDGSFFLYSKLTVDKSRWQQGNVFSCSVMHEALHNHYTQKSLSLSPGK
heavy 2: QVQLQESGPGLVKPSETLSLTCTVSGFSLTRYGVSWIRQPPGKGLEWIGVIWGEGNTNYNPSLKSRVTISKDSSKSQVSLKLSSVTAADTAVYYCARVNFGNALDYWGQGTLVTVSSASTKGPSVFPLAPSSKSTSGGTAALGCLVKDYFPEPVTVSWNSGALTSGVHTFPAVLQSSGLYSLSSVVTVPSSSLGTQTYICNVNHKPSNTKVDKKVEPKSCDKTHTAPAPAPAPAPAPAPAPQVQLVESGGGVVQPGRSLRLSCAASGFTFSTYAMNWVRQAPGKGLEWVGRIRSKYNNYATYYADSVKDRFTISRDDSKNTLYLQMNSLRGEDTAVYYCARHGNFGNSYVSWFAYWGQGTLVTVSSGGGGSGGGGSGGGGSQTVVTQEPSLTVSPGGTVTLTCRSSTGAVTTSNYANWVQQKPGQAPRGLIGGTNKRAPGVPARFSGSLLGGKAALTLSGVQPEDEAEYTCALWYSNLWVFGGGTKVEIKGGGGSDKTHTCPPCPAPPVAGPSVFLFPPKPKDTLMISRTPEVTCVVVDVSHEAPEVQFNWYVDGVEVHNAKTKPREEQFNSTFRVVSVLTVVHQDWLNGKEYKCKVSNKGLPAPIEKTISKTKGQPREPQVCTLPPSRDELTKNQVSLSCAVKGFYPSDIAVEWESNGQPENNYKTTPPVLDSDGSFFLVSKLTVDKSRWQQGNVFSCSVMHEALHNHYTQKSLSLSPGK
notes: CSBODY structure: two 2C6.9 Fab arms; second heavy chain (first heavy entry) and first heavy chain with anti-CD3 scFv (Di6-2) between CH1 and Fc2
B2: bispecific antibody CS11 (bispecific antibody, human IgG1, kappa)
light: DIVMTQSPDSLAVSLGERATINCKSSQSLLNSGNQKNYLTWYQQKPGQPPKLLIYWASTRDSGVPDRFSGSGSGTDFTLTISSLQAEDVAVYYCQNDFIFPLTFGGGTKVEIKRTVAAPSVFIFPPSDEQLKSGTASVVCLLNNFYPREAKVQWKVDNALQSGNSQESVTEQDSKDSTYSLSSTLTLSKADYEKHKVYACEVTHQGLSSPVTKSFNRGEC
heavy 1: B1 heavy 1
heavy 2: not shown
notes: CSBODY structure: two 2C6.9 Fab arms; second heavy chain (first heavy entry) and first heavy chain with anti-CD3 scFv (L2K) between CH1 and Fc2
B3: bispecific antibody CS6 (bispecific antibody, human IgG1, kappa)
light: DIVMTQSPSSLTVTAGEKVTMSCKSSQSLLNSGNQKNYLTWYQQKPGQPPKLLIYWASTRESGVPDRFTGSGSGTDFTLTISSVQAEDLAVYYCQNDYSYPFTFGSGTKLEIKRTVAAPSVFIFPPSDEQLKSGTASVVCLLNNFYPREAKVQWKVDNALQSGNSQESVTEQDSKDSTYSLSSTLTLSKADYEKHKVYACEVTHQGLSSPVTKSFNRGEC
heavy 1: QVQLQQPGAELVRPGASVKLSCKASGYTFTSYWINWVKQRPGQGLEWIGNIYPSDSYTNYNQKFKDKATLTVDKSSSTAYMQLSSPTSEDSAVYYCTRSWRGNSFDYWGQGTTLTVSSASTKGPSVFPLAPSSKSTSGGTAALGCLVKDYFPEPVTVSWNSGALTSGVHTFPAVLQSSGLYSLSSVVTVPSSSLGTQTYICNVNHKPSNTKVDKKVEPKSCDKTHTCPPCPAPPVAGPSVFLFPPKPKDTLMISRTPEVTCVVVDVSHEAPEVQFNWYVDGVEVHNAKTKPREEQFNSTFRVVSVLTVVHQDWLNGKEYKCKVSNKGLPAPIEKTISKTKGQPREPQVYTLPPCRDELTKNQVSLWCLVKGFYPSDIAVEWESNGQPENNYKTTPPVLDSDGSFFLYSKLTVDKSRWQQGNVFSCSVMHEALHNHYTQKSLSLSPGK
heavy 2: QVQLQQPGAELVRPGASVKLSCKASGYTFTSYWINWVKQRPGQGLEWIGNIYPSDSYTNYNQKFKDKATLTVDKSSSTAYMQLSSPTSEDSAVYYCTRSWRGNSFDYWGQGTTLTVSSASTKGPSVFPLAPSSKSTSGGTAALGCLVKDYFPEPVTVSWNSGALTSGVHTFPAVLQSSGLYSLSSVVTVPSSSLGTQTYICNVNHKPSNTKVDKKVEPKSCDKTHTAPAPAPAPAPAPAPAPQVQLVESGGGVVQPGRSLRLSCAASGFTFSTYAMNWVRQAPGKGLEWVGRIRSKYNNYATYYADSVKDRFTISRDDSKNTLYLQMNSLRGEDTAVYYCARHGNFGNSYVSWFAYWGQGTLVTVSSGGGGSGGGGSGGGGSQTVVTQEPSLTVSPGGTVTLTCRSSTGAVTTSNYANWVQQKPGQAPRGLIGGTNKRAPGVPARFSGSLLGGKAALTLSGVQPEDEAEYTCALWYSNLWVFGGGTKVEIKGGGGSDKTHTCPPCPAPPVAGPSVFLFPPKPKDTLMISRTPEVTCVVVDVSHEAPEVQFNWYVDGVEVHNAKTKPREEQFNSTFRVVSVLTVVHQDWLNGKEYKCKVSNKGLPAPIEKTISKTKGQPREPQVCTLPPSRDELTKNQVSLSCAVKGFYPSDIAVEWESNGQPENNYKTTPPVLDSDGSFFLVSKLTVDKSRWQQGNVFSCSVMHEALHNHYTQKSLSLSPGK
notes: CSBODY structure: two 175D10 Fab arms; second heavy chain (first heavy entry) and first heavy chain with anti-CD3 scFv (Di6-2) between CH1 and Fc2
B4: bispecific antibody CS7 (bispecific antibody, human IgG1, kappa)
light: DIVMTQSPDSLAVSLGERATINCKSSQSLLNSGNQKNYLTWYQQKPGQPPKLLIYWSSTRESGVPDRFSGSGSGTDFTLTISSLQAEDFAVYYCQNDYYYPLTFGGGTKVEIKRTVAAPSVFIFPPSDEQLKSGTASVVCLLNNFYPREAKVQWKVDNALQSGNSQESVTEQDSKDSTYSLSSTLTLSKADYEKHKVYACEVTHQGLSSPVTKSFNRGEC
heavy 1: EVQLVESGGGLVKPGGSLRLSCAASGFSFSNSAMSWVRQAPGKGLEWVSTISSGDSYTYYADSVKGRFTISRDNAKNSLYLQMNSLRAEDTAVYYCARQGYGNALDYWGQGTLVTVSSASTKGPSVFPLAPSSKSTSGGTAALGCLVKDYFPEPVTVSWNSGALTSGVHTFPAVLQSSGLYSLSSVVTVPSSSLGTQTYICNVNHKPSNTKVDKKVEPKSCDKTHTCPPCPAPPVAGPSVFLFPPKPKDTLMISRTPEVTCVVVDVSHEAPEVQFNWYVDGVEVHNAKTKPREEQFNSTFRVVSVLTVVHQDWLNGKEYKCKVSNKGLPAPIEKTISKTKGQPREPQVYTLPPCRDELTKNQVSLWCLVKGFYPSDIAVEWESNGQPENNYKTTPPVLDSDGSFFLYSKLTVDKSRWQQGNVFSCSVMHEALHNHYTQKSLSLSPGK
heavy 2: EVQLVESGGGLVKPGGSLRLSCAASGFSFSNSAMSWVRQAPGKGLEWVSTISSGDSYTYYADSVKGRFTISRDNAKNSLYLQMNSLRAEDTAVYYCARQGYGNALDYWGQGTLVTVSSASTKGPSVFPLAPSSKSTSGGTAALGCLVKDYFPEPVTVSWNSGALTSGVHTFPAVLQSSGLYSLSSVVTVPSSSLGTQTYICNVNHKPSNTKVDKKVEPKSCDKTHTAPAPAPAPAPAPAPAPQVQLVESGGGVVQPGRSLRLSCAASGFTFSTYAMNWVRQAPGKGLEWVGRIRSKYNNYATYYADSVKDRFTISRDDSKNTLYLQMNSLRGEDTAVYYCARHGNFGNSYVSWFAYWGQGTLVTVSSGGGGSGGGGSGGGGSQTVVTQEPSLTVSPGGTVTLTCRSSTGAVTTSNYANWVQQKPGQAPRGLIGGTNKRAPGVPARFSGSLLGGKAALTLSGVQPEDEAEYTCALWYSNLWVFGGGTKVEIKGGGGSDKTHTCPPCPAPPVAGPSVFLFPPKPKDTLMISRTPEVTCVVVDVSHEAPEVQFNWYVDGVEVHNAKTKPREEQFNSTFRVVSVLTVVHQDWLNGKEYKCKVSNKGLPAPIEKTISKTKGQPREPQVCTLPPSRDELTKNQVSLSCAVKGFYPSDIAVEWESNGQPENNYKTTPPVLDSDGSFFLVSKLTVDKSRWQQGNVFSCSVMHEALHNHYTQKSLSLSPGK
notes: CSBODY structure: two 1E9.2 Fab arms; second heavy chain (first heavy entry) and first heavy chain with anti-CD3 scFv (Di6-2) between CH1 and Fc2
B5: bispecific antibody CS10 (bispecific antibody, human IgG1, kappa)
light: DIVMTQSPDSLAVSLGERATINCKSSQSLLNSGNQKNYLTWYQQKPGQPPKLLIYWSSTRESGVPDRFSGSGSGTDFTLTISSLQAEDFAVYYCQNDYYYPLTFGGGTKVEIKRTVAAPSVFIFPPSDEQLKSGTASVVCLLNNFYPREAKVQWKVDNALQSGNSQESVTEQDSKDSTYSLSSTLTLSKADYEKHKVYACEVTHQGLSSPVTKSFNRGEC
heavy 1: B4 heavy 1
heavy 2: not shown
notes: CSBODY structure: two 1E9.2 Fab arms; second heavy chain (first heavy entry) and first heavy chain with anti-CD3 scFv (L2K) between CH1 and Fc2
B6: bispecific antibody Y17 (bispecific antibody, human IgG1, kappa)
light: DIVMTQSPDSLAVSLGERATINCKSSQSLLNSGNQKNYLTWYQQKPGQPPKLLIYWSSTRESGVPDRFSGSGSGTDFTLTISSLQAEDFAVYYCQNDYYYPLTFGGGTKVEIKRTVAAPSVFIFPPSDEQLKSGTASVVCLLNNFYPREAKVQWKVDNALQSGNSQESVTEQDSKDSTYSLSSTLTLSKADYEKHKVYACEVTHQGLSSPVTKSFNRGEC
heavy: B4 heavy 1
chain: QVQLVESGGGVVQPGRSLRLSCAASGFTFSTYAMNWVRQAPGKGLEWVGRIRSKYNNYATYYADSVKDRFTISRDDSKNTLYLQMNSLRGEDTAVYYCARHGNFGNSYVSWFAYWGQGTLVTVSSGGGGSGGGGSGGGGSQTVVTQEPSLTVSPGGTVTLTCRSSTGAVTTSNYANWVQQKPGQAPRGLIGGTNKRAPGVPARFSGSLLGGKAALTLSGVQPEDEAEYTCALWYSNLWVFGGGTKVEIKGRGRGSDKTHTCPPCPAPPVAGPSVFLFPPKPKDTLMISRTPEVTCVVVDVSHEAPEVQFNWYVDGVEVHNAKTKPREEQFNSTFRVVSVLTVVHQDWLNGKEYKCKVSNKGLPAPIEKTISKTKGQPREPQVCTLPPSRDELTKNQVSLSCAVKGFYPSDIAVEWESNGQPENNYKTTPPVLDSDGSFFLVSKLTVDKSRWQQGNVFSCSVMHEALHNHYTQKSLSLSPGK
notes: YBODY structure: anti-CLDN18.2 Fab arm (1E9.2) and second monomer anti-CD3 scFv (Di6-2)-Fc

Columns and labels:
[1] = molecular target: Human CLDN18.2 (human); assay: cell-based or functional assay
[2] = molecular target: T1, human CD3 antigen (human, UniProt P07766 23-126); assay: SPR (Biacore T200), human CD3 antigen on CM5 chip
T1 construct: also called Human CD3ϵ
Protocol: After the detection was completed, data fitting was carried out on the result pattern by adopting Biacore T200 Evaluation Software in a 1:1 binding fitting mode to obtain an equilibrium dissociation constant (KD).

[3] = molecular target: T2, Human CLDN18.2 (human); assay: flow cytometry, NUGC4 cells (endogenous CLDN18.2)
T2 construct: the cell line is named under assay; also called hCLDN18.2; human CLDN18.2 antigen

[4] = molecular target: T2, Human CLDN18.2; assay: flow cytometry, NUGC4-hCLDN18.2 cells
Protocol: NUGC4 and NUGC4-hCLDN18.2 cells were cultured, digested with pancreatin and centrifuged to collect cells. The cells were collected and resuspended in buffer (PBS+1% FBS) at 1×10⁴ cells/well in a 96-well plate at 100 μL per well. Then the mixture was centrifuged at 350×g for 5 min, and the supernatant was removed.

[5] = molecular target: T3, Human CLDN18.1 (human, UniProt P56856 1-261); assay: flow cytometry, 293T-hCLDN18.1 cells
T3 construct: also called hCLDN18.1

Binder | EC50 value for killing effect on NUGC4-hCLDN18.2 cells [1] | EC50 value for killing effect on NUGC4 cells [1] | Kd [2] | EC50 [3] | EC50 [4] | binding result [5]
B1 | < 0.01 nM | < 0.01 nM | < 15 nM | < 100 nM | < 50 nM | no binding
B2 | < 0.01 nM | < 0.01 nM |  | < 100 nM | < 50 nM | no binding
B3 | < 0.01 nM |  | < 15 nM |  | < 50 nM | no binding
B4 | < 0.01 nM | < 0.01 nM | < 15 nM | < 100 nM | < 50 nM | no binding
B5 | < 0.01 nM | < 0.01 nM |  | < 100 nM | < 50 nM | no binding
B6 | < 0.01 nM | < 0.01 nM | < 15 nM | < 100 nM | < 50 nM | no binding
